Consider one molecule from publication PMC8605104 (STAR Protocols, 2021).

Data set [1] has as its target T1, bacteriophage T7 ejection protein gp16 (internal virion protein), N-terminal 10x His-tagged, full-length (bacteriophage T7, UniProt P03726 1-1318).
T1 sequence (looked up): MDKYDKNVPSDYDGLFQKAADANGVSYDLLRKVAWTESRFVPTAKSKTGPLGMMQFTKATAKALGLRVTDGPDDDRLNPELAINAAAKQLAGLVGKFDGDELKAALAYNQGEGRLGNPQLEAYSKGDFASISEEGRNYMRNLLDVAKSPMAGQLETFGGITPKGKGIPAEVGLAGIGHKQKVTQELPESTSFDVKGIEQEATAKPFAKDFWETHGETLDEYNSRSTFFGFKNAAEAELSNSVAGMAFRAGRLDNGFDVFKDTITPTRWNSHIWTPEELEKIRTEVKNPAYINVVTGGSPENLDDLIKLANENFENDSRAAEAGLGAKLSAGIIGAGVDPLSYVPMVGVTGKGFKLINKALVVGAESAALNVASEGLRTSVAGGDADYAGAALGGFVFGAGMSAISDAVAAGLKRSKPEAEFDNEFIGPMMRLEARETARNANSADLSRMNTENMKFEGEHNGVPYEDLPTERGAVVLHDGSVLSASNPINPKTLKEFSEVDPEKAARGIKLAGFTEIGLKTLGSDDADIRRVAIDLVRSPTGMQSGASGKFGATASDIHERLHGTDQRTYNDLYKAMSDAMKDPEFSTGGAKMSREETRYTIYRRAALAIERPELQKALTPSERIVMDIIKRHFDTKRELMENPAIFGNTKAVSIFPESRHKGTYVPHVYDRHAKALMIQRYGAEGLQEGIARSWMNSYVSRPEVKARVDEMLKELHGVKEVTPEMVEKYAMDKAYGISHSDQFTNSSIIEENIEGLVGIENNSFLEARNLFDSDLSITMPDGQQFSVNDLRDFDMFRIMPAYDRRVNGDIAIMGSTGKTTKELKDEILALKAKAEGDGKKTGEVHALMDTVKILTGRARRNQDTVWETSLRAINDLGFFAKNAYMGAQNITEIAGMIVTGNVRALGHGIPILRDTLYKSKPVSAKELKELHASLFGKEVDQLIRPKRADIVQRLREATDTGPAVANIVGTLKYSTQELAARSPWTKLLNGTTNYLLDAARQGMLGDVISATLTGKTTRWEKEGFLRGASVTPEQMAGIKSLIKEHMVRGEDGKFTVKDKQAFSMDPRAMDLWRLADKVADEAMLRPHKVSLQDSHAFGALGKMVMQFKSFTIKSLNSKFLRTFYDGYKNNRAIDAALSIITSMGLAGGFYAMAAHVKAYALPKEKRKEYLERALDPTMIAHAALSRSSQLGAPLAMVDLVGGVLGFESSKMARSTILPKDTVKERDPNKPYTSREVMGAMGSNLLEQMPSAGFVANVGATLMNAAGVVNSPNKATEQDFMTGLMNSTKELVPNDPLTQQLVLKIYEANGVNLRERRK

Data set [2] concerns the molecule itself.

B1: bacteriophage T7 ejection protein gp15 (internal virion protein), N-terminal 10x His-tagged, full-length (natural protein, UniProt P03725 1-747, looked up)
chain: MSKIESALQAAQPGLSRLRGGAGGMGYRAATTQAEQPRSSLLDTIGRFAKAGADMYTAKEQRARDLADERSNEIIRKLTPEQRREALNNGTLLYQDDPYAMEALRVKTGRNAAYLVDDDVMQKIKEGVFRTREEMEEYRHSRLQEGAKVYAEQFGIDPEDVDYQRGFNGDITERNISLYGAHDNFLSQQAQKGAIMNSRVELNGVLQDPDMLRRPDSADFFEKYIDNGLVTGAIPSDAQATQLISQAFSDASSRAGGADFLMRVGDKKVTLNGATTTYRELIGEEQWNALMVTAQRSQFETDAKLNEQYRLKINSALNQEDPRTAWEMLQGIKAELDKVQPDEQMTPQREWLISAQEQVQNQMNAWTKAQAKALDDSMKSMNKLDVIDKQFQKRINGEWVSTDFKDMPVNENTGEFKHSDMVNYANKKLAEIDSMDIPDGAKDAMKLKYLQADSKDGAFRTAIGTMVTDAGQEWSAAVINGKLPERTPAMDALRRIRNADPQLIAALYPDQAELFLTMDMMDKQGIDPQVILDADRLTVKRSKEQRFEDDKAFESALNASKAPEIARMPASLRESARKIYDSVKYRSGNESMAMEQMTKFLKESTYTFTGDDVDGDTVGVIPKNMMQVNSDPKSWEQGRDILEEARKGIIASNPWITNKQLTMYSQGDSIYLMDTTGQVRVRYDKELLSKVWSENQKKLEEKAREKALADVNKRAPIVAATKAREAAAKRVREKRKQTPKFIYGRKE
By stoichiometry N is commonly meant the number of molecules, sites or subunits per partner or assembly. On to B1, for which the results for the “stoichiometry N” value in data set [1] and in data set [2] were 1 gp15:gp16 (6:6) and 6, respectively.
